Reference: paper PMC3972757 (Biochemistry, 2013)

Biological target: ubiquitin (human, UniProt P0CG47 1-76)
Experiment: ITC

B1: Phe320Ala mutant of the catalytic domain of AMSH (domain or fragment, human, UniProt O95630 219-424, looked up)
chain: SDCHTTVRPAKPPVVDRSLKPGALSNSESIPTIDGLRHVVVPGRLCPQFLQLASANTARGVETCGILCGKLMRNEFTITHVLIPKQSAGSDYCNTENEEELALIQDQQGLITLGWIHTHPTQTAFLSSVDLHTHCSYQMMLPESVAIVCSPKFQETGFFKLTDHGLEEISSCRQKGFHPHSKDPPLFCSCSHVTVVDRAVTITDLR
Kd: 81 ± 15 µM
